Laboratory results published in article PMC4005675.

What was measured:
[1] = target: isolated REC^D58E domain of ComE (Streptococcus pneumoniae strain R6); assay: SEC
[2] = target: isolated REC^D58E domain of ComE (Streptococcus pneumoniae strain R6); assay: SAXS
[3] = target: full-length ComE^D58E from Streptococcus pneumoniae (Streptococcus pneumoniae strain R6); assay: SAXS

Row | Substance | stoichiometry N [1] | stoichiometry N [2] | stoichiometry N [3]
1 | isolated REC^D58E domain of ComE (domain or fragment) | 2 | 2 | 
2 | full-length ComE^D58E from Streptococcus pneumoniae (natural protein) |  |  | 2
